What all share (assay): ITC
(In general: Isothermal titration calorimetry measures the heat released or taken up as one component is titrated into another.)

The target of experiment [1] is Rel from Chlorobaculum tepidum, full-length (Chlorobaculum tepidum (TLS entry; …, UniProt Q8KC80).
The target in experiment [2] is RelCt^R215E (Chlorobaculum tepidum).
Experiment [3] deals with Escherichia coli RelA, full-length (Escherichia coli (K-12 entry; strain …, UniProt P0AG20).
Escherichia coli RelA, full-length (Escherichia coli, sequence (P0AG20 whole entry): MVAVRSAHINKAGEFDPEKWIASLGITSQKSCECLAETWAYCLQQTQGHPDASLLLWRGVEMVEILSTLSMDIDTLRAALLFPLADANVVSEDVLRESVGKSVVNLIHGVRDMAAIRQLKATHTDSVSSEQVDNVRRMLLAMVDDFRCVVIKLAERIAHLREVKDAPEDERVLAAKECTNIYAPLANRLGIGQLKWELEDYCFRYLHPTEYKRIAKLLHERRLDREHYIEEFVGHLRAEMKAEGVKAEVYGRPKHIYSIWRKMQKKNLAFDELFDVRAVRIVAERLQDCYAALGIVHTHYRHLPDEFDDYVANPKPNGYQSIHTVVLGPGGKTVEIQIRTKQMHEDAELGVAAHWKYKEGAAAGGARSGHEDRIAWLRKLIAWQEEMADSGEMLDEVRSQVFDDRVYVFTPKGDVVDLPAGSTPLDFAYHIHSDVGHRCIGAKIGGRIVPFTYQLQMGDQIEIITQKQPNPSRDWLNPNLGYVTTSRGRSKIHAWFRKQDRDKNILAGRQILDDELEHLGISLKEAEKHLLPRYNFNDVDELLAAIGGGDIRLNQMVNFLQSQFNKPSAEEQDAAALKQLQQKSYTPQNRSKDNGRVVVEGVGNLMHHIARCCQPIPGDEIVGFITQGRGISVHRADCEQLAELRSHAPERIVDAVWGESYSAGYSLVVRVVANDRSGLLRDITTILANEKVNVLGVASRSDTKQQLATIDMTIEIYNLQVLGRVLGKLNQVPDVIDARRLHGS

B1: Nb898 (VHH)
VHH: QVQLQESGGGLVQAGGSLRLSCAASGSIESINAMAWYRQAPGKPRELVAVIAKSDGSTTYAVPVKGRFTISRDDAKNTVYLQMNSLKPEDTAIYYCNKIPNFTYWGQGTQVTVSS
For the molecule B1, the Kd (commonly a measure of binding affinity in units of concentration) in experiment [1] was determined as 186 nM.

B2: Nb585 (VHH)
VHH: QVQLQESGGGLVQAGGSLRLSCAASGFTFEDYTIGWFRQAPGKEREGVSLISNSDGFTSYADSVKGQFTISSENAKNTVYLQMDNLKPEDTAVYYCAATEVLAHLMWRPSNWGYWGQGTQVTV
B2 displayed a fold drop in affinity against RelCt in experiment [2] of 28 fold. The same molecule showed a Kd in experiment [1] of 21 nM.

B3: Nb96 (VHH)
VHH: QVQLQESGGGLVQAGGSLRLSCAASGSIFDIKVMAWYRQAPGKSRELVAVHASADDSTTYEKSVKGRFTISRDNAKNTVYLQMNSLKPEDTAIYYCNRIPNFTHWGQGTQVTVS
Consider B3, for which, in experiment [3], the Kd turned out to be 157 nM.

B4: Nb120 (VHH)
VHH: QVQLVESGGGLVQPGGSLRLSCAASGTIRSLNAMAWYRQAPGKERELAARISSGGTTTYADSVKGRFTISRDNAKNTLYLQMNSLKPEDTAVYYCKANRFSTYGYRDDIWGQGTQVTVS
Take B4: the binding result in experiment [3] is “no binding”.

B5: Nb94 (VHH)
VHH: QVQLVESGGGMVQPGGSLRLSCAASGFTFSTYSMGWFRQAPGQEREFVAAISWSGDSAYYADSVKGRFTISRDNAKNTVYLQMNSLKFEDTAVYYCNADLDGLGYDYWGQGTQVTVS
For the molecule B5, the equilibrium dissociation constant (Kd) in experiment [3] amounted to 13 nM.

Values taken from paper doi:10.1101/2025.08.07.669093 (bioRxiv, 2025).
